Key:
Experiment in all cases: fluorescence polarisation
Conditions in all cases: both partners purified
[1] = molecular target: TgPDCD5 N-terminal peptide (FITC-MQPEEFA) (T. gondii (GT1 strain), FITC label, printed before the first residue (FITC-MQPEEFA))
[2] = molecular target: TgPDCD5 C-terminal peptide (FITC-KNTPKVTM) (T. gondii (GT1 strain), FITC label, printed before the first residue (FITC-KNTPKVTM))
[3] = molecular target: TgPDCD5 middle-position peptide (FITC-VLTPAAQE) (T. gondii (GT1 strain), FITC label, printed before the first residue (FITC-VLTPAAQE))

B1: TgCyp18 (enzyme)
chain: not shown
**Q.** How did the Kd [1] turn out when B1 was run?
**A.** The Kd was 1400 µM.

**Q.** What about the Kd [2] of the same binder?
**A.** Its Kd is 311 µM.

**Q.** And the Kd [3]?
**A.** Its Kd is 1200 µM.

Reference: article PMC11134355 (JACS Au, 2024)
